Experiment [1] deals with T1, recombinant human CTLA4 extracellular domain (human, UniProt P16410 36-161).
T1 construct: extracellular domain; also called huCTLA-4
T1 sequence (looked up): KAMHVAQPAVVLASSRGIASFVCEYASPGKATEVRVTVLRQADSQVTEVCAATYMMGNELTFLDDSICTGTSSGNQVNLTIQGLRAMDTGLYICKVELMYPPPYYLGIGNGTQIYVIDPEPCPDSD
Nature of the experiment: SPR, human CTLA4 ECD immobilised, pH 6.0, AVG. The method, then: (§1) The CTLA4 extracellular domain (human or cynomolgus) was immobilized on the surface of a sensor chip. […] The binding kinetics were calculated using a 1:1 Longmuir model built into the analysis software.
On the technique in general: SPR reads the build-up and loss of mass on a sensor chip optically.

Experiment [2] addresses T2, cynomolgus CTLA4 expressed on the cell surface of CHO cells (cynomolgus, UniProt G7PL88 36-223).
T2 construct: whole, on cells; also called CHO-cynoCTLA4
T2 sequence: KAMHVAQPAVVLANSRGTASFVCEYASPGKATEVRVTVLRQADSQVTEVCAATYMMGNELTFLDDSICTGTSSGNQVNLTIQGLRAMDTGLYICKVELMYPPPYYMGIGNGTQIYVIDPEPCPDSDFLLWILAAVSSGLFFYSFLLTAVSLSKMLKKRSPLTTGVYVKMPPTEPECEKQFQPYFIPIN
In words: FACS, CHO cells expressing cynomolgus CTLA4 (CHO-cynoCTLA-4), pH 6.0, MFI; no unit in the table, unit from the axis Log Antibodies [ng/ml]. The method, then: (§2) The amount of antibodies bound on the cells was quantified using anti-human IgG antibody conjugated to fluorophores. EC₅₀ values at pH 6.0 and 7.4 for binding to cells were calculated using the nonlinear fit (variable slope, four parameters) model built into GraphPad Prism software (version 7.03). The expression levels of human CTLA4 or cynomolgus CTLA4 on the surface of the CHO cells were determined using a BD QuantiBRITE™ PE kit.
At least two independent duplicate FACS experiments were performed for each antibody using each of the cell lines. The binding activities at different concentrations of the antibodies are plotted in these figures.
(In flow cytometry, cells or beads pass a laser one at a time.)

Experiment [3] concerns the target T1, recombinant human CTLA4 extracellular …. In words: ELISA, immobilised huCTLA-4, pH 6.0, mean +/- SD. The procedure: EC₅₀ values at pH 6.0 for binding to human CTLA4 were calculated using the nonlinear fit model (variable slope, four parameters) of GraphPad Prism version 7.03.
In general terms: An ELISA detects its analyte on a solid surface through an enzyme-linked reagent.

The target is the same in experiment [4]. In words: SPR, human CTLA4 ECD immobilised, pH 6.0, run 1. The procedure: as §1
Experiment [5] concerns the target T2, cynomolgus CTLA4 expressed on the cell …. Nature of the experiment: FACS on CHO-cynoCTLA4 cells, pH 6.0, mean. The method, then: as §2
Experiment [6] deals with T3, human CTLA4 expressed on the cell surface of CHO cells (human, UniProt P16410 36-223).
T3 construct: whole, on cells; also called CHO-huCTLA4; huCTLA4
T3 sequence (looked up): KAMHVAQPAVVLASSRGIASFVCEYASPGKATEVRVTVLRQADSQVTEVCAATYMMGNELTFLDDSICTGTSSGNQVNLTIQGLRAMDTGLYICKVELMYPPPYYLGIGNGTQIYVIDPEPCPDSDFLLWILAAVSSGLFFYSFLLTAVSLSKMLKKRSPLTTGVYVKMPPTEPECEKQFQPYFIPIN
In words: FACS, cells expressing human CTLA4, assay pH 7.4, MFI; lot 6978 in His buffer, T2W; unit from the axis Log[ng/mL]. The method, then:
The amount of bound antibodies was quantified using anti-human IgG antibody conjugated to fluorophores. The MFI in each reaction was proportional to the amount of antibodies bound. The EC₅₀ value (in ng/mL) for binding to human CTLA4 on cells was determined by MFI of the singlets population against antibody concentration with a Prism variable slope of four-parameter dose-response curve, which was calculated using the nonlinear fit (variable slope, four parameters) model built into GraphPad Prism software (version 7.03).

The target of experiment [7] is T1, recombinant human CTLA4 extracellular …. Nature of the experiment: ELISA, wells coated with human CTLA4, assay pH 7.4; lot 6978 in His buffer, T0; curve still rising at log 3 (OD450 below 0.2), no plateau; unit from the axis Log[ng/mL]. The procedure: (§3) Both ELISA and FACS analysis were used to measure the binding activity. […] The amount of bound antibodies was quantified using anti-human IgG antibody conjugated to HRP. The absorbance at 450 nm in each measurement was proportional to the amount of antibodies bound. […] EC50 value (in ng/mL) for binding to human CTLA4 was determined by absorbance at 450 nm against antibody concentration with Prism variable slope of four-parameter dose-response curve, which was calculated using the nonlinear fit (variable slope, four parameters) model built into GraphPad Prism software (version 7.03). The buffers tested included His buffer (His), Tris buffer (Tris), Glutamine buffer (Glu) and no buffer.

Experiment [8] has as its target T3, human CTLA4 expressed on the cell …. Nature of the experiment: FACS competition on CHO-huCTLA4: antibody titrated against a fixed concentration of hB7-1 (hCD80), bound hB7-1 detected, % competition, plateau about 97 %; pH 6.0 per the text; unit from the axis CTLA4 Ab concentration Log(ng/mL).
Experiment [9] deals with T1, recombinant human CTLA4 extracellular …. Nature of the experiment: ELISA, immobilised huCTLA-4, table head pH 7.0 (text: pH 7.4), mean +/- SD.
Experiment [10] shares this target. In words: ELISA, wells coated with human CTLA4, assay pH 7.4; lot 6972 in Glu buffer, T0; unit from the axis Log[ng/mL]. The procedure:
as §3

The target is the same in experiment [11]. Nature of the experiment: ELISA, wells coated with human CTLA4, assay pH 7.4; lot 6972 in Tris buffer, T2W; unit from the axis Log[ng/mL]. The procedure:
as §3

The target is the same in experiment [12]. In words: ELISA, wells coated with human CTLA4, assay pH 6.0; lot 6972 in Glu buffer, T0; unit from the axis Log[ng/mL]. The method, then: as §3

B1: BA-087-08-32 (antibody, V domains shown)
VH: EVQLVQSGAEVKKPGATVKISCKVSGFTFSHYTMHWIRQSPSRGLEWLGFISYDGNYKYYADSVKGRFTISRDNAKNSLYLQMNSLRAEDTAVYYCARTGWLGPFDYWGQGTLVTVSS
VL: EIVMTQSPATLSVSPGERATLSCRASQSVGSSYLAWYQQKPGKAPKLLIYGAFSRATGVPSRFSGSGSGTDFTLTISSLQPEDFATYYCQQDGSSPWTFGQGTKVEIK
notes: Detected with anti-human IgG and a molecular weight of 146 kDa was used in SPR, so it was tested as a whole IgG; also called BA-087-08-032; BA-087-08-32 (# 6978)
One may read the Kd as the equilibrium constant for the complex coming apart. By koff is commonly meant the rate constant with which the complex falls apart. In general, kon refers to the second-order rate constant of association. Usually EC50 stands for the concentration needed to bring the measured effect to its halfway point. Turning to B1, the dissociation constant Kd in experiment [1] turned out to be 0.451 nM; in experiment [4] it was 0.365 nM. For the same molecule, the koff turned out to be 0.00163 s⁻¹ in experiment [1] and 0.0012 s⁻¹ in experiment [4]. Besides, the kon in [1] was 3.56e+06 M⁻¹ s⁻¹; in experiment [4], 3.29e+06 M⁻¹ s⁻¹. The EC50 in experiment [2] turned out to be 0.354 mg/L; in experiment [3] it was 0.00978 mg/L; in experiment [5], 0.403 mg/L; in [6], 1.18 mg/L; in [7] it was 0.491 mg/L; in experiment [8], 0.567 mg/L.

B2: BA-087-05-19 (antibody, V domains shown)
VH: EVQLVESGGGLVQPGGSLRLSCAASGFTFSHYTMHWVRQAPGKGLEWVSFISYDGNNKYYADSVKGRFTISRDNSKNTLYLQMNSLRAEDTAVYYCARTGWLGPFDYWGQGTLVTVSS
VL: AIQLTQSPSSLSASVGDRVTITCRASQYVGSSYLAWYLQKPGQSPQLLIYGAFSRATGIPARFSGSGSGTEFTLTISSLQSEDFAVYYCQQDGSSPWTFGQGTKVEIK
notes: Detected with anti-human IgG and a molecular weight of 146 kDa was used in SPR, so it was tested as a whole IgG; also called BA-087-05-019; BA-087-05-19 (# 6972)
On to B2, for which the values for the dissociation constant Kd in [1] and in [4] were 0.499 nM and 0.472 nM, respectively. In addition, the koff in experiment [1] was 0.000611 s⁻¹; in experiment [4], 0.000631 s⁻¹. In addition, the kon in experiment [1] was 1.23e+06 M⁻¹ s⁻¹; in [4], 1.34e+06 M⁻¹ s⁻¹. Also, the EC50 in experiment [2] was determined as 0.242 mg/L; in experiment [9] it was 0.0598 mg/L; in [10] it was 0.11 mg/L; in experiment [3] it was 0.00818 mg/L; in experiment [5], 0.316 mg/L; in experiment [11] it was 0.0365 mg/L. The EC50 in experiment [12] was determined as 0.0109 mg/L; in experiment [8], 0.745 mg/L.

(Values after patent US20210403565A1 (BIOATLA, published 2021).)
